Where a chain is given by its changes, count along the chain named. Each block holds one binder with its values, some of them ahead of it.
Key:
human CD70 [1] = target: T1, human CD70 (human, UniProt P32970 1-193); assay: IHC Leica BOND, ER2, FFPE HH cells, 5 µg/mL
T1 construct: Endogenous CD70 in FFPE cells and tissue sections, detected by IHC; also called CD70 antigen
T1 sequence: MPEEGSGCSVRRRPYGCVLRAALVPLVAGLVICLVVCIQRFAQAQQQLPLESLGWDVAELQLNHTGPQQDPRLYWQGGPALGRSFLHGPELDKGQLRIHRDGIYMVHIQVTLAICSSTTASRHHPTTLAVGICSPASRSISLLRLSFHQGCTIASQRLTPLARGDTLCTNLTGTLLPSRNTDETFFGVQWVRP
Procedure: (§1) The following IHC evaluation was performed using a Leica BOND™ RX autostainer and BOND™ Polymer Refine Detection kit. These antibodies were tested at 5 μg/mL or 8 μg/mL concentration on a panel of CD70 positive cell line controls and a renal clear cell carcinoma tissue microarray (RCC TMA). All incubation steps were performed at room temperature with wash cycles in between each step unless otherwise stated. Briefly, pretreatment of FFPE slides was performed using the Bake and Dewax function. It was followed by a HIER step with Epitope Retrieval solution 2 (ER2) for 20 minutes at 100° C. Next, tissues were incubated with primary antibody for 60 minutes, followed by incubation with post primary and then polymer reagents for 15 minutes each. The antibody-antigen binding was visualized by brown DAB Refine stain for 10 minutes and counter-stained blue with Hematoxylin for 5 minutes. […] Upon completion of IHC staining experiment, stained tissues were scan using a Pannoramic MIDI II brightfield whole slide scanner and staining was visualized using CaseViewer software.

human CD70 [2] = target: T1, human CD70; assay: IHC Leica BOND, ER2, FFPE ACHN cells, 8 µg/mL
Procedure: as §1

human CD70 [3] = target: T1, human CD70; assay: IHC Leica BOND, ER2, FFPE ACHN cells, 5 µg/mL
Procedure: as §1

B2: 11G12B6 (antibody, V domains shown)
VH: QVTLKESGPGILKPSQTLSLTCSFSGFSLSTSGLAVGWIRQPSGKGLEWLSHIWWNDDKYYNPSLKNQLTISKDTSRNQVFLKIISVDTADTATYYCSAYFGGKNYWGQGTALTVSS
VL: DIVMTQSPSSLTVTAGEKVTMSCKSSQSLLNSGNQKNYLTWYQQKPGQPPKLLVYWASTRESGVPDRFTGSGSGTDFTLTISTVQAEDLAVYYCQNDYSYPLTFGAGTKLELK
notes: Mouse hybridoma antibody, IgG1, Kappa; Only variable domains are printed
binding result (human CD70 [2]): binds

B3: 4E6G9 (antibody, V domains shown)
VH: QIQLVQSGPELKKAGETVKISCKASGYTFAAYSMHWVKQAPGKGLKWMGWINTETGEPTYADDFKGRFAFSLETSASTAYLQINNLKNEDTATYFCTRDDYDGGRFSYWYFAVWGAGTTVTVSS
VL: DIQMTQSPSSLSASLGGKVTITCKASQDINKYIAWYQHRPGKGPRLLIRYTSTLQPGIPSRFSGSGSGRDYSFSINNLEPEDIATYYCLQYDNLLTFGGGTKLEIK
notes: Mouse IgG1, Kappa; Only variable domains are printed; also called 4E6G9 antibody (Ms IgG1, kappa); recombinant antibody 4E6G9
binding result (human CD70 [3]): binds

B5: 19H7E4 (antibody, IgG1, V domains shown)
VH: QVTLKESGPGILQPSQTLSLTCSFSGFSLSTSNVGVGWIRQPSGKGLEWLLHILWNDGKYYNPALKSRLTISKDTSTNQVFLKIADVDTADSATYYCARLRRDYGMDYWGQGTSVTVSS
VL: DIVMSQSPSSLAVSVGEKVTMSCKSSQSLLYSYNQKNYLAWYQQKPGQSPKLLIYWASTRESGVPDRFTGSGSGTDFTLTISSVKAEDLAVYYCQQYYTYPYAFGGGTKLEIK
notes: as for B2
binding result (human CD70 [3]): binds

Next, values leading:

binding result (human CD70 [1]): binds
B1: 3H11D12E7 (antibody, V domains shown)
VH: QIQLVQSGPELKKPGETVKISCKASGYTFTDYSMHWVKQAPGKGLKWMGWINTETGEPTYADDFKGRFAFSLETSASTAYLQINNLKNDDTATYFCARSFYRYDWYFDVWGAGTTVTVSS
VL: QIVLTQSPAIMSASPGEKVTITCSASSSVSFMHWFQQKPGTSPKLWIYSTSNLASGVPARFSGSGSGTSYSLTISRMEAEDAATYYCQQRTSFPPTFGGGTNLEIK
notes: Mouse IgG1, Kappa; Only variable domains are printed; also called recombinantly expressed 3H11D12E7

binding result (human CD70 [3]): binds
B4: 18F8A8 (antibody, IgG1, V domains shown)
VH: QVTLKESGPGILQPSQTLSLTCSFSGFSLSTSNMGVAWIRQPLGKGLEWLLYILWNDTKYYNPALKSRLSISKDTYNNQVFLKIVNVDTADTATYYCARIRRDYALDYWGQGTSVTVSS
VL: B5 VL with S22N, Y33N, T99I, Y102L
notes: as for B2

binding result (human CD70 [3]): binds
B6: 16D7C8 (antibody, IgG3, V domains shown)
VH: QVQLQQSGPELVKPGASVRISCKASGYTFTSFYIHWVKQRPGQGLEWIGWISPINININYNEKFKGKATLTADKSSSTVYMQLSSLTSEDSAVYFCEGTSENFDVWGAGTTVTVSS
VL: DVLMTQIPLSLPVSLGDQASISCRSTQNIVHSNGNTYLEWYLQKPGQSPKLLIYKVSNRFSGVPDRFRGSGSGTEFTLKITRVEADDLGVYYCFQGSHVPFTFGAGTKLELK
notes: Mouse hybridoma antibody, IgG3, Kappa; Only variable domains are printed

Source: patent publication US20210380707A1 (published 2021)
